Values of other authors in publication PMC3890242.

Molecular target: Tyr57 (UniProt position 57, QIAAFYRQGLG)
Test: UV-vis
Details: unliganded D40N pKSI

For “Ketosteroid isomerase (pKSI) D40N (Pseudomonas putida; D40N)”, the pKa is given as 6.3 ± 0.1.
